This is an account of results in patent US20140302070A1.

The target in assay [1] is MHC class I H2-K^d-… (HIV-1; mouse) (UniProt P01902). Briefly: H2-K^d-… tetramer staining of splenocytes, flow cytometry.
Assay [2] shares this target.

“splenocytes (T cells) of mice vaccinated with msΔ42PD1-p24fc DNA (cells without a defined receptor)”: the frequency of p24-specific tetramer^+ CD8^+ T cells in assay [1] stood at 17%.
“splenocytes (T cells) of mice immunized with human sΔ42PD1-p24fc DNA (cells without a defined receptor)” yielded an IFN-γ ELISPOT (fold against the p24fc-immunized group) in assay [2] of 10.
